Reference: patent US20040265965
Changes are numbered by the printed parent chain. Numbers in names are those of the source. Where “and” joins values, the source holds several entries; their conditions need not be identical. Equal values may be shown once.

B1: 452H,NINL soluble BACE (R42L43P44R45 changed to NINL, histidine tag), baculovirus/Sf9 (protein)
chain: NINLETDEEPEEPGRRGSFVEMVDNLRGKSGQGYYVEMTVGSPPQTLNILVDTGSSNFAVGAAPHPFLHRYYQRQLSSTYRDLRKGVYVPYTQGKWEGELGTDLVSIPHGPNVTVRANIAAITESDKFFINGSNWEGILGLAYAEIARPDDSLEPFFDSLVKQTHVPNLFSLQLCGAGFPLNQSEVLASVGGSMIIGGIDHSLYTGSLWYTPIRREWYYEVIIVRVEINGQDLKMDCKEYNYDKSIVDSGTTNLRLPKKVFEAAVKSIKAASSTEKFPDGFWLGEQLVCWQAGTTPWNIFPVISLYLMGEVTNQSFRITILPQQYLRPVEDVATSQDDCYKFAISQSSTGTVMGAVIMEGFYVVFDRARKRIGFAVSACHVHDEFRTAAVEGPFVTLDMEDCGYNIPQTDE
B2: Δ2,3-452H,NINL soluble BACE (S174I, N223A, R42L43P44R45 changed to NINL, histidine tag), baculovirus/Sf9 (protein)
chain: B1 chain with S133I, N182A
B3: Δ2,3-452Flag soluble BACE (S174I, N223A) (protein)
chain: TQHGIRLPLRSGLGGAPLGLRLPRETDEEPEEPGRRGSFVEMVDNLRGKSGQGYYVEMTVGSPPQTLNILVDTGSSNFAVGAAPHPFLHRYYQRQLSSTYRDLRKGVYVPYTQGKWEGELGTDLVSIPHGPNVTVRANIAAITESDKFFINGINWEGILGLAYAEIARPDDSLEPFFDSLVKQTHVPNLFSLQLCGAGFPLAQSEVLASVGGSMIIGGIDHSLYTGSLWYTPIRREWYYEVIIVRVEINGQDLKMDCKEYNYDKSIVDSGTTNLRLPKKVFEAAVKSIKAASSTEKFPDGFWLGEQLVCWQAGTTPWNIFPVISLYLMGEVTNQSFRITILPQQYLRPVEDVATSQDDCYKFAISQSSTGTVMGAVIMEGFYVVFDRARKRIGFAVSACHVHDEFRTAAVEGPFVTLDMEDCGYNIPQTD
B4: 452Flag soluble BACE (membrane truncated BACE with C-terminal Flag epitope tag, fully glycosylated) (protein)
chain: B3 chain with I153S, A202N
B5: Δ3-452Flag soluble BACE (N223A) (protein)
chain: B3 chain with I153S
B6: Δ2,3-452H soluble BACE (S174I, N223A, histidine tag), baculovirus/Sf9 (protein)
chain: TQHGIRLPLRSGLGGAPLGLRLPRETDEEPEEPGRRGSFVEMVDNLRGKSGQGYYVEMTVGSPPQTLNILVDTGSSNFAVGAAPHPFLHRYYQRQLSSTYRDLRKGVYVPYTQGKWEGELGTDLVSIPHGPNVTVRANIAAITESDKFFINGINWEGILGLAYAEIARPDDSLEPFFDSLVKQTHVPNLFSLQLCGAGFPLAQSEVLASVGGSMIIGGIDHSLYTGSLWYTPIRREWYYEVIIVRVEINGQDLKMDCKEYNYDKSIVDSGTTNLRLPKKVFEAAVKSIKAASSTEKFPDGFWLGEQLVCWQAGTTPWNIFPVISLYLMGEVTNQSFRITILPQQYLRPVEDVATSQDDCYKFAISQSSTGTVMGAVIMEGFYVVFDRARKRIGFAVSACHVHDEFRTAAVEGPFVTLDMEDCGYNIPQTDE

target: MBP-C125Swe (maltose binding protein fused to the C-terminal 125 amino acids of the Swedish variant of APP), P05067
Sequence (P05067 whole entry, looked up, change not shown, the tested form may be a part): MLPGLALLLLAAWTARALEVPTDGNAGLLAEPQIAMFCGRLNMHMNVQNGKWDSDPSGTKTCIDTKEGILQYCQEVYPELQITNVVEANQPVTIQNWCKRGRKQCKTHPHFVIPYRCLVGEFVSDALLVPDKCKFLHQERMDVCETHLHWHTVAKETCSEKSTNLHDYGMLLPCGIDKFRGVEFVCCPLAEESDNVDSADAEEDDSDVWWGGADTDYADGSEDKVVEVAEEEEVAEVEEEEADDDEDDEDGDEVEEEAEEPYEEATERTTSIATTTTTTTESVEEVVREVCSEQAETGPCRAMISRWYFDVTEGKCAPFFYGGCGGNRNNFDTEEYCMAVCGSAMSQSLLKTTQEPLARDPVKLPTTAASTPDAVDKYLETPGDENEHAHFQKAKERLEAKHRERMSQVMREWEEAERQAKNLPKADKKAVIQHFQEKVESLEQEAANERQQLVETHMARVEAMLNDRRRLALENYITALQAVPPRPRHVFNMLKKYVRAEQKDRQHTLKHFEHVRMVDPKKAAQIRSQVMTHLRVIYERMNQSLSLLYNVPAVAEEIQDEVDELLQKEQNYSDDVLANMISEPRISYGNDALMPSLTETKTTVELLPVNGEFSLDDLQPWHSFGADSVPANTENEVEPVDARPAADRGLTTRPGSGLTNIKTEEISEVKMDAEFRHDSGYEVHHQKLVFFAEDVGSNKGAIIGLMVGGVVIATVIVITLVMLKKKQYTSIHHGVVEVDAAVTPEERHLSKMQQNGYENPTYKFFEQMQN

**Q.** With B1 as the protein, how does the Enzyme activity read?
**A.** Its Enzyme activity is “good activity was obtained for all samples tested”.

**Q.** For B2, which Enzyme activity is on record?
**A.** Its Enzyme activity is “good activity was obtained for all samples tested”.

**Q.** B3 was tested. Which Activity (pM/h/ng enz) did it give?
**A.** The Activity (pM/h/ng enz) was 15800 pM/h/ng enz and 15700 pM/h/ng enz.

**Q.** What about the Cleavage Product (pM) of the same protein?
**A.** Its Cleavage Product (pM) is 109 pM and 108 pM.

**Q.** And the “Substrate Conversion (%)” value?
**A.** The value was 5.19% and 5.16%.

**Q.** What about the specific activity of the same protein?
**A.** The specific activity was “all three proteins (452 Flag, Δ3-452Flag and Δ2,3-452Flag) had similar specific activities”.

**Q.** B4 was tested. Which Activity (pM/h/ng enz) did it give?
**A.** The Activity (pM/h/ng enz) was 14300 pM/h/ng enz and 15200 pM/h/ng enz.

**Q.** And the Cleavage Product (pM)?
**A.** Its Cleavage Product (pM) is 85 pM and 90 pM.

**Q.** And the “Substrate Conversion (%)” value?
**A.** The value was 4.05% and 4.30%.

**Q.** What about the specific activity of the same protein?
**A.** The specific activity was “all three proteins (452 Flag, Δ3-452Flag and Δ2,3-452Flag) had similar specific activities”.

**Q.** For B5, which Activity (pM/h/ng enz) is on record?
**A.** Its Activity (pM/h/ng enz) is 19100 pM/h/ng enz and 20200 pM/h/ng enz.

**Q.** What about the Cleavage Product (pM) of the same protein?
**A.** The Cleavage Product (pM) was 126 pM and 119 pM.

**Q.** What about the “Substrate Conversion (%)” value of the same protein?
**A.** The value was 5.68% and 6.01%.

**Q.** And the specific activity?
**A.** The specific activity was “all three proteins (452 Flag, Δ3-452Flag and Δ2,3-452Flag) had similar specific activities”.

**Q.** For B6, which Enzyme activity is on record?
**A.** The Enzyme activity was “good activity was obtained for all samples tested”.
